The values below come from patent US20200140562A1.

Read-outs that look alike come from different tables or passages of the source.

Test [1] concerns the target human OX40 on cells (CHO-hOX40, 293HEK-hOX40, Jurkat-hOX40, activated primary CD4+ T cells) (human) (UniProt P43489). The test is described as follows: flow cytometry, CHO-hOX40, […]. In general terms: A flow cytometer gives signals particle by particle.
The target is the same in test [2]. The test is described as follows: flow cytometry, CHO-hOX40, 25 nM.
The target is the same in test [3]. Description: flow cytometry, CHO-hOX40, 50 nM.
Test [4] has the same target. The test is described as follows: flow cytometry, CHO-hOX40, 100 nM.
Test [5] has the same target. Description: flow cytometry, CHO-hOX40, 200 nM.
The target is the same in test [6]. The test is described as follows: flow cytometry, CHO-hOX40, 12.5 nM.
The target is the same in test [7]. Description: flow cytometry, CHO-hOX40, 6.25 nM.
Test [8] shares this target. Description: flow cytometry, CHO-hOX40, 3.125 nM.
For test [9] the target is unchanged. The test is described as follows: flow cytometry, CHO-hOX40, 0.78125 nM.
Test [10] has the same target. The test is described as follows: flow cytometry, CHO-hOX40, 0.390625 nM.
The target is the same in test [11]. Description: flow cytometry, CHO-hOX40, 0.1953125 nM.
The target is the same in test [12]. Description: flow cytometry, CHO-hOX40, 0.09765625 nM.
The target is the same in test [13]. Description: flow cytometry, CHO-hOX40, 0.024414063 nM.
Test [14] has the same target. The test is described as follows: flow cytometry, CHO-hOX40, 0.048828125 nM.
Test [15] has the same target. Description: cell-based or functional assay.
Test [16] has the same target. Description: flow cytometry, CHO-hOX40.
Test [17] has the same target. Description: flow cytometry, CHO-hOX40, 100 nM. This is another data set of the same source.
Test [18] shares this target. The test is described as follows: flow cytometry, 293HEK-hOX40, 8 nM.
For test [19] the target is unchanged. Description: flow cytometry, 293HEK-hOX40, 40 nM.
For test [20] the target is unchanged. The test is described as follows: flow cytometry, 293HEK-hOX40, 1.6 nM.
For test [21] the target is unchanged. The test is described as follows: flow cytometry, 293HEK-hOX40, 200 nM.
Test [22] concerns the target human OX40_Fc (R&D Systems) (human) (UniProt P43489). Description: BLI, IgG1 on tip, hOX40-Fc 50 nM, avid. For orientation: BLI is a label-free optical method that tracks binding on a fibre tip over time.
For test [23] the target is unchanged. The test is described as follows: BLI, IgG1 on tip, hOX40-Fc 50 nM, avid. This is another data set of the same source.
Test [24] deals with cyno OX40_Fc (Acro Biosystems) (cyno). Description: BLI, IgG1 on tip, cyno OX40-Fc 100 nM, avid.
For test [25] the target is unchanged. The test is described as follows: BLI, IgG1 on tip, cyno OX40-Fc 100 nM, avid. The source holds these as a separate data set.
The target of test [26] is human OX40 on cells (CHO-hOX40, 293HEK-hOX40, Jurkat-hOX40, activated primary CD4+ T cells) (human) (UniProt P43489). The test is described as follows: flow cytometry, MFI on CHO-hOX40 over wild-type CHO.
For test [27] the target is unchanged. The test is described as above. The source holds these as a separate data set.
Test [28] shares this target. The test is described as follows: flow cytometry, activated CD4+ T cells, donor 1, 100 nM.
The target is the same in test [29]. Description: flow cytometry, activated CD4+ T cells, donor 2, 100 nM.
Test [30] has the same target. Description: flow cytometry, CHO-hOX40, 100 nM blocker, competitor OX40L-hFc-fluorescein.

Chain of human OX40 on cells (CHO-hOX40, 293HEK-hOX40, Jurkat-hOX40, activated primary CD4+ T cells) (human) (P43489 29-277): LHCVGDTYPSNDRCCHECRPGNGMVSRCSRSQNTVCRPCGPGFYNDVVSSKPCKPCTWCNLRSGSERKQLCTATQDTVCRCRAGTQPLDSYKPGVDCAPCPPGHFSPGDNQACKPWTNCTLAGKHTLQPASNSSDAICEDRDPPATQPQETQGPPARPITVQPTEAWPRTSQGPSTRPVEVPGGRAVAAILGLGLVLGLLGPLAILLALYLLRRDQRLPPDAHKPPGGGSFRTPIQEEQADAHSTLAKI
Chain of human OX40_Fc (R&D Systems) (human) (P43489 29-216): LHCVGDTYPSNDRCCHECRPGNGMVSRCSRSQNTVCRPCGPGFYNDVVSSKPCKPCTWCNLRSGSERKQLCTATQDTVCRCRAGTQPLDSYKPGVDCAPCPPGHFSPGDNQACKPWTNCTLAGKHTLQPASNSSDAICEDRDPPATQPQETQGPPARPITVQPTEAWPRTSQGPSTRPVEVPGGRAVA

B1: IgG2 control (antibody, V domains shown)
VH: QLQLQKSGPGLVKPSETLSLTCTVSGFTFSNYAMGWIRQPPGKGLEWIGAISGSGGSTYYADSVKGRVTISVDTSKNQFSLKLSSVTAADTAVYYCARGGPGWYAADVWGQGTLVTVSS
VL: EIVLTQSPATLSLSPGERATLSCRASQSISSYLNWYQQKPGQAPRLLIYAASSLQSGIPARFSGSGSGTDFTLTISSLEPEDFAVYYCQQADLPAFAFGGGTKVEIKR
Turning to B1, the MFI is 2900 MFI in test [1]; 22100 MFI in test [2]; 44100 MFI in test [3]; 93000 MFI in [4]; 216000 MFI in test [5]; 11900 MFI in [6]. Further, the MFI in test [7] was found to be 6400 MFI; in test [8] it was 4150 MFI; in test [9], 2250 MFI; in [10], 1890 MFI; in [11] it was 1680 MFI; in test [12] it was 1590 MFI. For the same molecule, the MFI in test [13] came to 1510 MFI; in test [14] it was 1560 MFI.

B2: Hu106-222, humanized IgG1 OX40 antibody (antibody, from another filing, V domains shown)
VH: QVQLVQSGSELKKPGASVKVSCKASGYTFTDYSMHWVRQAPGQGLKWMGWINTETGEPTYADDFKGRFVFSLDTSVSTAYLQISSLKAEDTAVYYCANPYYDYVSYYAMDYWGQGTTVTVSS
VL: DIQMTQSPSSLSASVGDRVTITCKASQDVSTAVAWYQQKPGKAPKLLIYSASYLYTGVPSRFSGSGSGTDFTFTISSLQPEDIATYYCQQHYSTPRTFGQGTKLEIK
The EC50 is the concentration at which the effect is half-maximal. Read a high EC50 as a need for much substance. The term Kd denotes the equilibrium constant for the complex coming apart. In turn, B2 had an NFkB-Luc fold change in Jurkat stimulated by PHA+ anti-CD28 (fold over IgG4 control) in [15] of 1.93. The NFkB-Luc fold change in Jurkat stimulated by anti-CD3+ anti-CD28 (fold over IgG4 control) in [15] worked out at 1.77. In test [16], this molecule showed an EC50 of 1.94 nM. In addition, the MFI in test [1] is 1.25e+06 MFI; in [2], 2.24e+06 MFI; in test [3], 2.34e+06 MFI; in [4], 2.5e+06 MFI; in test [5], 2.64e+06 MFI; in [6] it was 2.18e+06 MFI. Moreover, the MFI stood at 2.02e+06 MFI in test [7]; 1.74e+06 MFI in test [18]; 1.77e+06 MFI in test [8]; 1.8e+06 MFI in test [19]; 650000 MFI in [20]; 1.79e+06 MFI in [21]. Moreover, the MFI in test [9] came to 600000 MFI; in [10], 474000 MFI; in test [11] it was 181000 MFI; in test [12], 77600 MFI; in test [13], 26700 MFI; in [14], 49800 MFI. The MFI is 115000 MFI in [28] and 136000 MFI in [29]. The CHO-OX40 binding intensity (MFI) amounted to 164000 MFI in [4] and 183000 MFI in [17]. Besides, the Kd came to 0.25 nM in test [22], 0.475 nM in test [23], 4.96 nM in test [24] and 5.17 nM in [25]. Further, the Fold difference in test [26] is 2630 fold; in test [27], 1700 fold. For the same molecule, the MFI of OX40L signal on CHO-OX40 cells in [30] amounted to 25800 MFI.
